Results from publication PMC12527216.

Columns and labels:
[1] = molecular target: recombinant soluble CD4 engineered with a deletion in the transmembrane region but retaining the cytoplasmic tail (UniProt P01730); assay: ELISA; as a1, but HIVBaL treated beforehand with 1% (w/w) (110 mM) L-lactic acid at pH 3.8 for 60 min at 37°C
[2] = molecular target: recombinant soluble CD4 engineered with a deletion in the transmembrane region but retaining the cytoplasmic tail (UniProt P01730); assay: ELISA; as a1, but HIVBaL treated beforehand with acidified media at pH 3.8 (HCl adjusted) for 60 min at 37°C

## virion-associated trimeric gp120 envelope glycoprotein of HIV-1 BaL (on HIVBaL virions) (natural protein)
[1]
  fold reduction in rCD4 binding relative to untreated HIV-1: 2 fold
[2]
  fold reduction in rCD4 binding relative to untreated HIV-1: 2 fold
